Measured values published in patent US20150267176.

Experiments:
[1] = system: TALE-LSD1 #11 (ZFPM2 +16); assay: cell_activity; details: expression change not significant; histone modification levels at target reduced; +16 matched to #11 by coordinates
[2] = system: TALE-LSD1 #25 (ZFPM2 +10); assay: cell_activity; details: K562 RT-qPCR; +10 enhancer matched to #25 by coordinates; also reduces enhancer histone marks
[3] = system: TALE-LSD1 #28 (ZFPM2 +45); assay: cell_activity; details: expression change not significant; histone modification levels at target reduced; +45 matched to #28 by coordinates
[4] = system: SCL enhancer TALE-3X FLAG; details: anti-FLAG ChIP-seq in K562, input 1; top ranked and only reproducible peak; exact SCL target not identified in text (candidates SEQ 9, 11, 37)
SCL enhancer TALE-LSD1 = assay: cell_activity; details: K562 ChIP-qPCR vs mCherry; H3K27ac reduced >4-fold

Substance TALE #11 target chr8:106,347,824 has an activity (% reduction of ZFPM2 expression) [1] of 13.

Work on TALE #25 target chr8:106,341,287 yielded an activity (fold reduction of ZFPM2 expression) [2] of 2.

Work on TALE #28 target chr8:106,376,850 yielded an activity (% reduction of ZFPM2 expression) [3] of 22.

In the case of SCL enhancer 18 bp TALE target (18/18), the binding signal (tags per 1 kb bin) [4] is reported as 17.5 and the activity (fold reduction of H3K4me2) (SCL enhancer TALE-LSD1) is reported as 3.
